This is an account of results in patent US20250313626A1 (HARBOUR BIOMED SHANGHAI, published 2025).

Read-outs that look alike come from different tables or passages of the source.

The target in assay [1] is T1, CD200R1a on PathHunter Jurkat CD200R1a signaling cells (Eurofins DiscoverX, 93-1136C19) (human, UniProt Q8TD46 25-348).
T1 sequence: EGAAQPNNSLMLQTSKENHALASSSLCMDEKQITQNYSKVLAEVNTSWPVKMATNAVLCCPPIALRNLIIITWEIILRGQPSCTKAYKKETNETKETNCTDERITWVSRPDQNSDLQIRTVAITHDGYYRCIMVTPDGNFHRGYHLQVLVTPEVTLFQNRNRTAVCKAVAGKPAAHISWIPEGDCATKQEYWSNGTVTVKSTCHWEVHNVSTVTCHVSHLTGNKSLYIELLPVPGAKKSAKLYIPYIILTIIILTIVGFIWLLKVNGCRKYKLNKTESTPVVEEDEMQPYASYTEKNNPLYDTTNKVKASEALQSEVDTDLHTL
Nature of the assay: cell-based or functional assay.

The next assay concerns the target T2, Mouse CD200R1-His (mouse, UniProt Q9ES57 26-238, limits assumed).
T2 sequence (looked up): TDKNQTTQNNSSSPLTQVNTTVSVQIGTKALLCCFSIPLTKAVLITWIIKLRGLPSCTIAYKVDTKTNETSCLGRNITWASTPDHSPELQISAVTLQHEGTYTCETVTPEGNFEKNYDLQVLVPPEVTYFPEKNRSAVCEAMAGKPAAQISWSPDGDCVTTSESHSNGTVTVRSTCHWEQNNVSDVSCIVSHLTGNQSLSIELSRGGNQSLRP
The assay can be described thus: BLI (Octet), antibody captured on anti-human Fc sensor. As for the experimental part:
(§1) To determine the binding affinities of the anti-CD200R1 antibodies to CD200R1a proteins of various species (mouse, human, Cynomolgus macaques), bio-layer interferometry (BLI) assays were carried out using an Octet® RED96e instrument. Antibodies were produced as described in Example 3.4 and diluted to 5 μg/mL using freshly prepared 1× kinetic buffer (10× kinetic buffer (Catalog #18-1105, ForteBio) was diluted with PBS(Catalog #E607016-0500, BBI Life Sciences)) and were captured on the surface of anti-human Fc (AHC) Octet biosensors (Catalog #18-5060, ForteBio) to reach capture levels between 0.9-1.2 nm. The biosensors having the captured anti-CD200R1 antibodies were then dipped in wells containing 2-fold serial dilutions of CD200R1a proteins to detect association signals, followed by dissociation steps in wells containing 1× kinetic buffer. The sensorgrams were recorded and the reference signals were subtracted before curve fitting using ForteBio Data Analysis 11.0 software. Association rates (kₒₙ) and dissociation rates (koff) were calculated using a simple one-to-one Langmuir binding model. The equilibrium dissociation constant (KD) was calculated as the ratio of koff/kₒₙ.
(In BLI a coated tip is dipped into the sample, and binding shifts an interference pattern.)

Assay [2] concerns the target T3, human CD200R1a protein (soluble recombinant) (human, UniProt Q8TD46 29-265).
T3 construct: Soluble protein used in BLI; also called human CD200R1 isoform a; not shown: His tag implied by capture on anti-Penta-HIS biosensors
T3 sequence: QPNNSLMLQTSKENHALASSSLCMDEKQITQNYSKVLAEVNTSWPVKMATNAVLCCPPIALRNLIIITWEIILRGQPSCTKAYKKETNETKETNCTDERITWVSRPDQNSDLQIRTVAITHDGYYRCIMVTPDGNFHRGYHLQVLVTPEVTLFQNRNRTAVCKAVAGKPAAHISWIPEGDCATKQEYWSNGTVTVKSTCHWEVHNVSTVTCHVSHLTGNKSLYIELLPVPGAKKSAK
The assay can be described thus: BLI (Octet), antibody captured on anti-human Fc sensor, soluble CD200R1a as analyte, 1:1 fit. How it is done: as §1

In assay [3] the target is T4, human CD200R1 isoform a on CHOK1 cells (CHOK1/hCD200R1a) (human, UniProt Q8TD46 25-348).
T4 construct: also called CHOK1/CD200R1a
T4 sequence: T1 sequence
The assay can be described thus: flow cytometry, CHOK1/hCD200R1a cells; table beside the curves, head without unit, x axis Log [Ab] (nM). As for the experimental part:
(§2) This example is intended to investigate the in vitro binding activity of human anti-CD200R1 monoclonal antibodies to human/Cynomolgus macaques CD200R1a expressed on the surface of cells. The anti-CD200R1 antibodies were produced as described in Example 3.4 and the binding experiments at the cell level were performed using CHOK1/hCD200R1a and CHOK1-cynoCD200R1a.
(§3) Briefly, CHOK1/hCD200R1a cells and CHOK1-cynoCD200R1a cells were digested, and collected, and then were resuspended in PBS containing 2% BSA, respectively. The cell density was adjusted to 1×10⁶ cells/mL. The cells were seeded in a 96-well V-bottom plate (Corning, #3894) at 100 μL/well, followed by the addition of test antibodies and reference antibodies in a series diluted concentration, each at 100 μL/well. The cells were incubated away from light at 4° C. for 1 h. Thereafter, the cells in each well were rinsed twice with 100 μL of pre-cooled PBS containing 2% BSA, and centrifuged at 500 g at 4° C. for 5 min, and then the supernatant was discarded. 100 μL of fluorescent secondary antibody (Alexa Fluor 488-conjugated AffiniPure Goat Anti-Human IgG, Fcγ Fragment Specific, Jackson, #109-545-098, diluted in a 1:1000 ratio) was added in each well, and the plate was incubated away from light at 4° C. for 1 h. The cells in each well were rinsed twice with 100 μL of pre-cooled PBS containing 2% BSA, and centrifuged at 500 g at 4° C. for 5 min, and then the supernatant was discarded. Finally, the cells in each well were resuspended in 200 μL of pre-cooled PBS containing 2% BSA, and the fluorescence signal values were read using a BD CantoII flow cytometer.
(In general: A flow cytometer gives signals particle by particle.)

For assay [4], the target named is T4, human CD200R1 isoform a on CHOK1 cells …. Nature of the assay: flow cytometry blocking assay: antibody titrated against biotin-labelled human CD200 binding to CHOK1/hCD200R1a cells. How it is done: To study the activity of human anti-CD200R1 antibodies in blocking the binding of human CD200 to its receptor CD200R1a in vitro, CHOK1/hCD200R1a was used to perform cell-level human CD200/human CD200R1a binding and blocking experiments.
In brief, CHOK1/hCD200R1a cells were digested and resuspended in 2% BSA in PBS. […] The cells were placed at 4° C. and incubated for 1 hour in the dark. […] 100 μL/well of pre-cooled PBS containing 2% BSA was added to rinse the cells twice, centrifugation was performed at 500 g, 4° C. for 5 minutes, and the supernatant was discarded. Fluorescent secondary antibody (PE Streptavidin, BD, Cat #: 554061, 1:200) was added at 100 μL/well, and incubation was performed at 4° C. for 30 minutes in the dark. The cells were washed twice with 200 μL/well of pre-cooled PBS, and were centrifuged at 500 g, 4° C. for 5 minutes, and the supernatant was discarded. Finally, 200 μL/well of pre-cooled PBS was used to resuspend the cells, and the fluorescence signal values were read using ACEA Novocyte 3000 flow cytometer. IC50 values were calculated.

Assay [5] has the same target. The assay can be described thus: flow cytometry on CHOK1/hCD200R1a cells. As for the experimental part: as §2
as §3, with “100 μL of fluorescent secondary antibody (Alexa Fluor 488-conjugated AffiniPure Goat Anti-Human IgG, Fcγ Fragment Specific, Jackson, #109-545-098, diluted in a 1:1000 ratio) was added in each well, and the plate was incubated away from light at 4° C. for 1 h. The cells in each well were rinsed twice with 100 μL of pre-cooled PBS containing 2% BSA, and centrifuged at 500 g at 4° C. for 5 min, and then the supernatant was discarded.” left out

The target of assay [6] is T5, Cynomolgus macaques CD200R1 isoform a on CHOK1 cells (CHOK1/cynoCD200R1a) (Cynomolgus macaques).
T5 chain: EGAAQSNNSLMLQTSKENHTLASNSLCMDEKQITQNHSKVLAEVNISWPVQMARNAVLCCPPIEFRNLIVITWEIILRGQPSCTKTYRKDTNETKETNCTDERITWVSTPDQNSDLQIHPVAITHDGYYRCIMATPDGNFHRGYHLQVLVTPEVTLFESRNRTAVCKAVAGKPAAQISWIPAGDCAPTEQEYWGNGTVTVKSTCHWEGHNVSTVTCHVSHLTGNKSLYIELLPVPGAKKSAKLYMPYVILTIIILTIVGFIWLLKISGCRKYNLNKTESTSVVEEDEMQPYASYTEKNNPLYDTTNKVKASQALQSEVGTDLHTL
Nature of the assay: flow cytometry on CHOK1/cynoCD200R1a cells. As for the experimental part: as §2
as §3, with “100 μL of fluorescent secondary antibody (Alexa Fluor 488-conjugated AffiniPure Goat Anti-Human IgG, Fcγ Fragment Specific, Jackson, #109-545-098, diluted in a 1:1000 ratio) was added in each well, and the plate was incubated away from light at 4° C. for 1 h. The cells in each well were rinsed twice with 100 μL of pre-cooled PBS containing 2% BSA, and centrifuged at 500 g at 4° C. for 5 min, and then the supernatant was discarded.” left out

Assay [7] concerns the target T6, CD200 (human CD200 on CHOK1/hCD200 cells).
T6 single chain: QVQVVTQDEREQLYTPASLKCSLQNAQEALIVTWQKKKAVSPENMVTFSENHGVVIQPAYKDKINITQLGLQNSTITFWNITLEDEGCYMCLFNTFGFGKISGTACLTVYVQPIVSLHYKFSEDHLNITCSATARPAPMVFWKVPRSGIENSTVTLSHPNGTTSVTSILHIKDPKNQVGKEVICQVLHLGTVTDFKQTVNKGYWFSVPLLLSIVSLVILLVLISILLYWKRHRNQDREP
Nature of the assay: cell-based or functional assay.

Assay [8] concerns the target T6, CD200 (human CD200 on CHOK1/hCD200 …). Nature of the assay: cell-based or functional assay.
Assay [9] shares this target. Nature of the assay: cell-based or functional assay.
Assay [10] shares this target. The assay can be described thus: cell-based or functional assay.
Assay [11] shares this target. The assay can be described thus: cell-based or functional assay.
In assay [12] the target is T4, human CD200R1 isoform a on CHOK1 cells …. The assay can be described thus: flow cytometry, Alexa Fluor 647-labelled antibody on CHOK1/hCD200R1a cells. As for the experimental part:
as §3, with “100 μL of fluorescent secondary antibody (Alexa Fluor 488-conjugated AffiniPure Goat Anti-Human IgG, Fcγ Fragment Specific, Jackson, #109-545-098, diluted in a 1:1000 ratio) was added in each well, and the plate was incubated away from light at 4° C. for 1 h.” left out
The cell density was adjusted to 1×10⁶ cells/mL.

B1: PR006475 (antibody, human IgG1, kappa, L234A L235A, V domains shown)
VH: QVQLQESGPGLVKPSGTLSLTCAVSGASISSGHWWSWVRQPPGKGLEWIGEIYHSGSTNYTPSLKSRVTISVDKSKNQFSLKLTSVTAADTAVYYCAREASYHYGSGSYYTPFDFWGQGTLVTVSS
VL: EIVLTQSPATLSVSPGERATLSCRASQSVSSNLAWYQQKPGQAPRLLIYGASTRATGIPARFSGSGSGTEFTLTISSLQSEDFALYYCQQYNNWIIFGQGTRLEIKR
The term Kd denotes the equilibrium constant for the complex coming apart. One may read the koff as a measure of how fast the partners let go of each other. The kon is a measure of how fast the partners come together. For orientation: EC50 means the midpoint of the concentration-response curve. Low values mean a more potent agent, high ones a less potent agent. As a reminder, the IC50 is the concentration that inhibits the measured activity by half. With B1, in assay [1], the “IC50 of the inhibition of CD200-induced PathHunter Jurkat CD200R1a luminescence (CHOK1/hCD200 cells as CD200 source); head without unit, x axis Log [Ab] (nM)” value was determined as 10.6 nM. Moreover, the binding result with Mouse CD200R1-His was “no binding”. In addition, in [2], the dissociation constant Kd turned out to be 12.8 nM, the koff was 0.000376 s⁻¹ and the kon was 29400 M⁻¹ s⁻¹. Further, the concentration for a half-maximal effect (EC50) in assay [3] was determined as 6.97 nM. Moreover, in assay [4], the “Blocking (Max %)” value was determined as 110% and the half-inhibitory concentration (IC50) is 32.2 nM.

B2: PR200526 (antibody, human IgG1, lambda, V domains shown)
VH: QVQLVQSGAEVKKPGQSLRISCKGAGYSFSTYWIGWVRQMPGKGLEWMGIIYPDDSDTRYSPSFEGQVTISVDKSITTAYLHWSSLKASDTAIYYCARLVGGAPAYWGQGTLVTVSS
VL: QSALTQPASVSGSPGQSITISCSGSSSDIGRYDYVSWYQHYPDKAPKLIIYEVKHRPSGISHRFSASKSGNTASLTISELQPGDEADYYCASYTESKTYIFGGGTKVTVLG
notes: also called IgG1; hIgG1
For B2, the binding result in assay [5] and in assay [6] was “no binding (tested: log 2.5 nM (about 300 nM))” in each case.

B3: PR002903 (antibody, human IgG2, kappa, V domains shown)
VH: QVQLQQSGSELKKPGASVKISCKASGYSFTDYIILWVRQNPGKGLEWIGHIDPYYGSSNYNLKFKGRVTITADQSTTTAYMELSSLRSEDTAVYYCGRSKRDYFDYWGQGTTLTVSS
VL: DIQMTQSPSSLSASIGDRVTITCKASQDINSYLSWFQQKPGKAPKLLIYRANRLVDGVPSRFSGSGSGTDYTLTISSLQPEDFAVYYCLQYDEFPYTFGGGTKLEIKR
Take B3: the “IC50 of the inhibition of CD200-induced PathHunter Jurkat CD200R1a luminescence (CHOK1/hCD200 cells as CD200 source); head without unit, x axis Log [Ab] (nM)” value turned out to be 4.18 nM in assay [7] and 11.9 nM in assay [8]. Moreover, the “IC50 of the inhibition of CD200-induced PathHunter Jurkat CD200R1a luminescence (CHOK1/hCD200 cells as CD200 source)” value in [9] was determined as 2.4 nM; in [10] it was 3.4 nM; in [11] it was 4.01 nM.

B4: PR200691 (antibody, human IgG4 S228P, kappa, F234A L235A, V domains shown)
VH: QVQLVESGGGVVQPGRSLRLSCAASGFTFSRYGMHWVRQAPGKGLEWVAVIPYDGSNKYYADSVKGRFTISRDISKNTLYLQMNSLRAEDTAVYYCARRGYYDSSGYYYFYYGMDVWGQGTTVTVSS
VL: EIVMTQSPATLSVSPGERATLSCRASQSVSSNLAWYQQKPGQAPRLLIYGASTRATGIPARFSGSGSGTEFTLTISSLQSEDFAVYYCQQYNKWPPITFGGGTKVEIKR
For the molecule B4, in [12], the binding result is recorded as “binds”.
